Assay results taken from the DeepSol protein solubility set.

test: soluble on expression in E. coli; label from the status in PepcDB or PDB records

Sequence	soluble on expression in E. coli
MGSDKIHHHHHHMADFSNQIVTIKKGLDLPIAGEPRQVIELGAKPSQVAVLGEEFVGLKPTMLVEEGDWVQKGQALFEDKKTPGVLFTAPASGQVVAINRGERRILQSVVIRCDDGENRDGQISFEIHQDIAALARSTVQAQLVKSGLWTALRTRPFSRVPALDSTPAGIFVTAIDTNPLAADPRLIIAEQTEAFKAGLLVLSRLTEGKVYLCQDKGEAIVKEALPQLEVRRFDGVHPAGLVGTHIHFTLPVSLERQVWHIGYQDVIAYGKLFQTGELYTDRIVALGGPSVLNPRLLRTQLGAELSPLVSDDIKPGQNRVVSGSVLSGHTAVGVHDFLGRFHNQVSVLSEDAQHHVLSWVRGGSDKFSITRAVTSRLFGATKLFEFTTHQGGSARAMMAFGQLDRVMPLDILPTLLVRDLVVRDTDEAQALGALELDEEDLALCTFVCPGKYDFGKELRACLDVIEREG	not soluble
MSLTIQMKNTGKRIDLIANRKPQSQRVLYELRDRLKRNQFILNDTNPDIVISIGGDGMLLSAFHKYENQLDKVRFIGLHTGHLGFYTDYRDFELDKLVTNLQLDTGARVSYPVLNVKVFLENGEVKIFRALNEASIRRSDRTMVADIVINGVPFERFRGDGLTVSTPTGSTAYNKSLGGAVLHPTIEALQLTEIASLNNRVYRTLGSSIIVPKKDKIELIPTRNDYHTISVDNSVYSFRNIERIEYQIDHHKIHFVATPSHTSFWNRVKDAFIGEVDEEGHHHHHH	soluble
MRVVAFVPGSISDQILFFPTLDDLKRYYPDAQIDVIVESQSKAAYRLSKSVHEVLTFDYSDHNSLADWGNLVGTIRDREYDVAMTTGESWFIGLFLWLTGIPTRIGYKGKGAGFLTNTIRRNTSQYVAAMYHDLLKPVGIKTPCPELTANVPKPDIQWAQQEQKRLGIHETGYILIYGGSSHSSQIDGADTSYPIASWQQIIQDCQHKQPELPIVLIKEADDENFVRVLLESCSNLKITSPDDIGKLTAIISGASLMLSIENGPLQLAVAVQTYTIALLSSTDADKLLPKSDKFLAIKSHSGKTVDIPPPTVLEKIWGG	not soluble
FSDISSLQRFVKFSQSDWLVEMLAQERFTSHFQPIVSMKNTSEIYGYEALLRGLDEQGNLIPPQPIVELATEAGLLPQLDRIARLSTIAQFSSHQVSGQIFINFAPTAVYDPASCLKSTVEAIDQAGISHERVVFEVVESDSPQDLDHLKAVLKYYRDAGFSIALDDLGSGYSSLNLLHQLRPDFIKLDMELIRDVHQDLYKASITEKLLEIAQKLNIRTVAEGIECIEELNWVQERGATFAQGYLIAKP	not soluble
MLTLNYYVEITATPQRVWRVLTDAELYKRWAQAFSPQSQFEGEWEEGSDITFFDPDMGGTRAVIDSVQPLHRLEFHHVAIFNPDNRQQLDADIAAKWIGSREIYQIDTEDERLLLNITIHTHSDFVSMFNNGWEKALPLIKSICEETDSQLEHHHHHH	soluble
MISKDEILEIFDKYNKDEITIATLGSHTSLHILKGAKLEGFSTVCITMKGRDVPYKRFKVADKFIYVDNFSDIKNEEIQEKLRELNSIVVPHGSFIAYCGLDNVENSFLVPMFGNRRILRWESERSLEGKLLREAGLRVPKKYESPEDIDGTVIVKFPGARGGRGYFIASSTEEFYKKAEDLKKRGILTDEDIANAHIEEYVVGTNFCIHYFYSPLKDEVELLGMDKRYESNIDGLVRIPAKDQLEMNINPSYVITGNIPVVIRESLLPQVFEMGDKLVAKAKELVPPGMIGPFCLQSLCNENLELVVFEMSARVDGGTNSFMNGGPYSFLYNGEPLSMGQRIAREIKMALQLDMIDKIIS	soluble
RAHQRWREHALAVIKDKMYNHIGSILVFLPGVADIRFLLDSLMAQKVEGVKICPLFGELSLKEQQQAIAPCLSGHRKIVLATNIAETSLTIDGIDLVIDCGLEKVAVFDSASLMNKLMQKQISKASAVQRAGRAGRLMHGQCIRLYGKDDFERR	not soluble
MSNSAKLIDVITKVALPIGIIASGIQYSMYDVKGGSRGVIFDRINGVKQQVVGEGTHFLVPWLQKAIIYDVRTKPKSIATNTGTKDLQMVSLTLRVLHRPEVLQLPAIYQNLGLDYDERVLPSIGNEVLKSIVAQFDAAELITQREIISQKIRKELSTRANEFGIKLEDVSITHMTFGPEFTKAVEQKQIAQQDAERAKFLVEKAEQERQASVIRAEGEAESAEFISKALAKVGDGLLLIRRLEASKDIAQTLANSSNVVYLPSQHSGGGNSESSGSPNSLLLNIGR	not soluble
MSLKRDELKLDYQRHQFYEYFNSIFNYDILDASISENIYLLRKTTDKLFYIEFENQLFETVMFLSMKTLVLDINSFSKEIGNKSEAYEQYIQQIKEENGINNFFDRYPYLLKQINREVRLIEESYSLLFDRFLKDLSELRSCFNITEPLSNVEFSLGDSHSQKQTVVKIEFKGKSIYYKPKSYDSYNILLELISLLKSNNIPSFSLPESLIKADYCWQLGVDYINSNNDEVKRIYFKYGVLAAFSEIFSITDLHMENVIVSGGDLYLIDVETFFQRKLNVQTNNFEGITVDTYQRIYETSLSNGLFPVQFEKNSAPNISGISGKGGKRKKGKYELINKNRGDMKLVKTDYFQEDSYNIPTLNEKMVEPLDYANEVIAGFRECYTFLMTQRAKVKKILYGFPKLRTRAIFRNTSDYGKFLQASTNPKYLFSEKKRENLFSILYESKHIEQFIVDSEIKDLMNGDIPYFSMDPNGNVYNSLGTVIGNLGKTTSLFDNIATLNDERMKFTCELIGIVLKKPIKHWERKDGKSYYFPSISSKQSFNEEILRQREGHHHHHH	soluble
MAPRSILITGANRGIGLGLVKQFLKNEGIQLVIATCRNPSKADELNSIADSRLQIFPLEIDCDDSIKKLYENVDTLVGTDGLTVLINNAAICSVYEIEGQISRTYMRQQIETNSVSTAILTQNFIPLLKKASAKNGGEEYSTDRAAIVNISSGAASIGYIDDKQPGIYIAYRMSKSALNSFSKSCSVELAKYHILVTAMCPGWVKTDMGGENGWEEVDDATEKIMKSILKLGAAQHGAFINSSLEVYPN	not soluble
MSLSIKLIAVDMDGTFLSDQKTYNRERFMAQYQQMKAQGIRFVVASGNQYYQLISFFPEIANEIAFVAENGGWVVSEGKDVFNGELSKDAFATVVEHLLTRPEVEIIACGKNSAYTLKKYDDAMKTVAEMYYHRLEYVDNFDNLEDIFFKFGLNLSDELIPQVQKALHEAIGDIMVPVHTGNGSIDLIIPGVHKANGLRQLQKLWGIDDSEVVVFGDGGNDIEMLRQAGFSFAMENAGSAVVAAAKYRAGSNNREGVLDVIDKVLKHEAPFKEGHHHHHH	soluble
MNSIVNGLYTFMSTTVVPAVTEQAANLVGGASALAEGATQALTQISQTALEWGSGSEDATASSEVFSWEQQGAAAASSDLQEDKKETTEDVHQEAIGASSPNTSIEWEVIHENPDETGPIRHNQFEMVQNNYEWMKNSK	soluble
MHTSILLLTALCAGAYAQFSANGQAAILNVHNTLRSRIAKGTYVAKGTAKPAASDMLKMKWDATVAASAQAYANKCPTGHSGAAGLGENLYWYWTSATITNIDQFGATGSAAWEKEFQDYGWSSNTLSMSLFNTGIGHATQMAWAKTNLIGCGVKNCGKDTNGFNKVTVVCQYKPQGNYLNQNIYTSGTTCSKCPSGTSCEAATGLCA	not soluble
MKIYTRTGDAGETGLYGAERVVKAHPRVEAYGTVDEANSAIGLARSLLPGKHRDLHDLLERLQNALFDLGADLATRMGSPYEKNIARMDAEDVRALEEAIDRYQEESPPFQGFILPGGHPAAAALHLARTVVRRAERKAVALSREEPVNPEVIRYLNRLSDLLFVLARVVNAREGIKEEGWLVKKRR	soluble
MYVAVKGGEKAIDNAHRLLARKRRGDTALPELSVEQIRQQMPLAVSRVMTEGSLYDEQLAALAIKQAAGDLMEAIFLLRAYRTTLPRFAASLPLDTAGMRLQRRISATYKDLPGGQLLGPTFDYTHRLLDFSLLAEGDYPGPEVERGASLEPCPRVLGLLDREGLMTPEYELPGAVPDITREPLDFPTGRAQRLQALARGDEGFLLALGYSTQRGYGRNHPFAGEIRIGACEVWLEPEELGFAVPVGEIEVTECEMVNQFVGSREELPQFTRGYGLAFGYAERKAMGMALVDRALRAEEYGEEVVSPAQQEEFVLMHCDNVEAGGFVSHLKLPHYVDFQSELELIRKLRRPGVAESAQPTVQEKRA	not soluble
MAHHHHHHMPRALRYCRPRRDPDESLLAYLSTKFTYLADAQWRQHIAAGDISVNGETLTDGSYVLRQGDMLRFAPPRSLEPPVDSEHIEVLYEDSTLLVVTKNGNLPVAEGGRYCENTLVEVLRRRGTAAFYTASTRTSFGTTHEDTEKVSDSPTHAGEIVETAARAEGSTAMDASGKGAEIPTSPPSRRRLEDGSHGIFAVGSAPCASVPSPKASTVQQRSSLDLFTVQRLDKETSGVVVLAKNSVSARTLASQLEAQTKGCADAVESRLRERGHAVALSSDAFDELLRLKAQSVHKTYTAVLRGAAPEDHTFVVVNCMDCMAKHPTHSWEAQHTQLKKLKMCCEPVKEMLFSHAAAALPQSPKEQQTRWGRLAVTRIRVLASNKKLGLTCVQVELLTGRSHQIRLHCAAVGYPVLGDKLYTTMTPGREGGATAVSDAVYLERVRREDDPYLPIDDDVSGAGGSSRSGKMWCRRHLLHATRIIFAHPDVSPARLMTFMASPAPFFTADVRFECEEDSLLFSQWLTRAVSRPLERAEASQS	not soluble
MIKSITIRTSREFEIIDITKEVERVVRESNVKSGIVVVFTRHTTTALTINENESGLKRDIEEILSKLVPKGMNYFHDRIDNNAHSHLRGILLGPSLTIPVEDGRLLLGTWQSILFVELDGPRTREVYVKVCECLEHHHHHH	soluble
MLTMSKAVESLQRFLMPKAGEPHDVRMLYLIESEHNNGRAMWNDRHSVAISAGDEVSFQTYFNAFPASYWRRWTQLDNVILRVEVTGTARVDVFRTKIDGASYAEQGQVVSDGVVEFDLSLAPFEDGGWLWFYVTAETDVTFKAGWYAPQAPQPQVMPDGSQVGPFDKRVTVGIPTFNRPTDAVAALTALSEDPEVDAVIDAVIMPDQGNKHPADEPGYKEATEHFGDRFFEFRQGNLGGSGGYSRIMYEALGGVDGTKPAGAAQSPYILYMDDDIAIEPDSVLRALQVARYAKSPILVGGQMLSLQERSHLHSMGEVVDRNIFMWTSAPFVHYDHDFAKYPLSDRPSPDAPSDRPKTEDLHRRIDVDYNGWWMCMIPRVVAEQIGQPLPLFIKWDDAEYGLRAGNAGFATATWPGVAIWHLAWSDKDDAIDWQAYFHLRNRLIVGAIENGNPAGMVRSMQKATLKHLLCLEYSTVAVQNEAMKDFLAGPSHLFDILETSLPHINALRKNYSDAVVLPSAADLPRPSGAPGVPTVYNLSGPLAPVKKVGWLLKGIKHTLSKENPQHHDVPQANLAPINARWFSLSRLDGATVSTADGRGVVYRKRDRAQAKELLQESYRLQKEVAANFDRLREEYRAAHKELTSREAWAKIFEEPQGAEES	not soluble
MSLVHNPDNTKLSDATFVIFDIETTGLHGRYDDVIEFSARKIKNNSEIDHQQFFLKIDKPIPKTITEITKITDEMLEGGIDQQQGLEKIRNYLDDCVMVAHNGINFDLPFLQTQFEKYNIKPLTNPLIDTLCLSWALNPLFSSHTLSNICSKLKLEFDDERLHRAEYDTEALKKVFFYFKKQLKEMGINTLTEIDQNLNKKCQIDLMKRVFTNTAIVYVKNQRGFQNLYEMLSIALTDHNANRPLVLASSLAKFRKSFLLTENPVQGDIFKAALTKPINELEKAIEKVDFVLISQPNAYLGYTLREGLKKELINDAIKLVIKTATKLKKLVAVASDAYFIHPWENEYYKAIVCAKGLGGKWHRHFNNKEKEQTVPEVFLHTTDEMLKRMSFLGEDIAYKLVVENTNKIVKLLDLNELVPTKNKLYPPVMQDSNQKLIDKTWKQAEKRYGKNLPKLIKERIEKEEGHHHHHH	soluble
